Source: article PMC8278322 (Cancer research, 2020)

Biological target: T1, Gal4-fused SMAD4 (UniProt Q13485 1-552)
T1 sequence (looked up): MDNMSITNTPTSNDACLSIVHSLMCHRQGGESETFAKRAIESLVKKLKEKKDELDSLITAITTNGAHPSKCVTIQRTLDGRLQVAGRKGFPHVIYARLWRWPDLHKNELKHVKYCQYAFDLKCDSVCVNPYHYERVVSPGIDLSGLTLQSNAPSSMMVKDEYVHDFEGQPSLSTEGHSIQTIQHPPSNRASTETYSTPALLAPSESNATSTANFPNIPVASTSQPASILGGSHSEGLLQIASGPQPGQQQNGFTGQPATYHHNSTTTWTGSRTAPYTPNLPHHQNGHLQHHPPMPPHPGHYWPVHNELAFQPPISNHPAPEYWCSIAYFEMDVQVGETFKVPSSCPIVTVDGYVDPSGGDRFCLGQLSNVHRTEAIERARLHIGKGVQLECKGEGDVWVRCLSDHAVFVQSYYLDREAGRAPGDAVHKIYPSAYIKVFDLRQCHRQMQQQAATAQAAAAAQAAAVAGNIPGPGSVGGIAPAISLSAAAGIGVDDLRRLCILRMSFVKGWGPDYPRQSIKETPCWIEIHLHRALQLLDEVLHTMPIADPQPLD
Test: two-hybrid

B1: pVP16-fused FOXL2^C134W (natural protein, human, UniProt P58012 1-376, looked up)
chain: MMASYPEPEDAAGALLAPETGRTVKEPEGPPPSPGKGGGGGGGTAPEKPDPAQKPPYSYVALIAMAIRESAEKRLTLSGIYQYIIAKFPFYEKNKKGWQNSIRHNLSLNECFIKVPREGGGERKGNYWTLDPAWEDMFEKGNYRRRRRMKRPFRPPPAHFQPGKGLFGAGGAAGGCGVAGAGADGYGYLAPPKYLQSGFLNNSWPLPQPPSPMPYASCQMAAAAAAAAAAAAAAGPGSPGAAAVVKGLAGPAASYGPYTRVQSMALPPGVVNSYNGLGGPPAAPPPPPHPHPHPHAHHLHAAAAPPPAPPHHGAAAPPPGQLSPASPATAAPPAPAPTSAPGLQFACARQPELAMMHCSYWDHDSKTGALHSRLDL
With B1 the “fold luciferase activity against pVP16-fused wildtype FOXL2” value was roughly 20 fold.
